Data published in CN109467603A (BIOCELLS BEIJING BIOTECHNOLOGY CO LTD, dated 2019).

B1: scFv5 (scFv)
scFv: QVQLVESGGGVVQPGRSLRLDCKASGITFSNSGMHWVRQAPGKGLEWVAVIWYDGSKRYYADSVKGRFTISRDNSKNTLFLQMNSLRAEDTAVYYCATNDDYWGQGTLVTVSSGGGGSGGGGSGGGGSEIVMTQSPATLSLSPGERATLSCRASQSVSSSVSWYQQKLGQAPRLLIYDASNRATGIPARFSGSGSGTDFTLTISSLEPEDFAVYYCQQRSKWPLTFGAGTKVEIKR
B2: scFv2 (scFv)
scFv: QVQLVESGGGVVQPGKSLRLSCAASGFSFRNYDMHWVRQAPGRGLEWVAVTWYDGSNKYYADSVKGRFTISRDNSKNTVYLHINSLRAEDTAVYYCAKDQAHYYNYSTGHFSYYFDSWGQGTLVTVSGGGGSGGGGSGGGGSEIVLTQSPATLSLSPGQRATLSCRTSQTIRKHLAWYQQKPGQAPRLLVYDISSRATGIPARFSGSGSGTDFTLTISSLQPDDFATYYCQRYDTYPRTFGQGTKVEIKR
B3: scFv3 (scFv)
scFv: QVQLVQSGAEVKKPGSSVKVSCKASGGTFSSYAISWVRQAPGQGLEWMGRIIPILGIANYAQKFQGRVTITADKSTSTAYKELSSLRSEDTAVYYCAAPLPKNGVYPWGQGTLVTVSSGGGGSGGGGSGGGGSGGGGSEIVMTQSPATLSSSPGERVTLSCRASQSVTSHLAWYQQRPGQAPRLLIYDASKRATGIPARFSGSGSGTDFTLTISSLEPEDFATYYCLQDYRYPRTFGQGTKVEIKR
B4: scFv1 (scFv)
scFv: QVQLVQSGGDLVKPGGSLRLSCATSGFTFSTYNMHWVRQAPGKGLEWVSSISRSSDYIYYADSVKGRFTMSRDNAKTSLYLQMNSLRADDTAVYYCARDSWIYDGSGYSSDAFDIWGQGTMVTVSGGGGSGGGGSGGGGSEIVLTQSPATLSLSPGERATLSCRASQSISSYLSWYQQKPGQAPRLLIYDASNRATGIPARFSGGGSGTDFTLTISSLEPEDFAVYYCQQRNSWPLTFGGGTKVEIKR
B5: scFv4 (scFv)
scFv: QVQLVQSGGGLVKPGGSLRLSCVASGFTFSNSGMHWVRQAPGKGLEWVAVIWYDGSKRYYADSVKGRFTISRDNSKNTLFLQMNSLRAEDTAVYYCATNDDYWGQGTLVTVSSGGGGSGGGGSGGGGSEIVMTQSPATLSLSPGERATLSCRASQSVSSNLAWYQQKPGQAPRLLIYDASTRATGIPARFSGSGSGTDFTLTISSLQPEDFATYYCLQDYNYPRTFGQGTKLEIKR

Key:
T细胞表面PD-1 (human) [1] = target: T细胞表面PD-1 (human) (UniProt Q15116); experiment: flow cytometry, MNC co-cultured with DC, no BXOS antibody
T细胞表面PD-1 (human) [2] = target: T细胞表面PD-1 (human) (UniProt Q15116); experiment: flow cytometry, MNC cultured alone 3 days, no BXOS antibody
[3] = target: 生物素化PD-1 (PD-1:PD-L1抑制剂筛选试剂盒, AcroBiosystems，EP-101) (UniProt Q15116); experiment: competition ELISA, PD-L1 coated, biotinylated PD-1; positive control antibody
[4] = target: T1, 人PD-1重组蛋白(Acro Biosystems，PD-1-H5221) (human, UniProt Q15116 25-167); experiment: phage ELISA on coated human PD-1 recombinant protein
T1 construct: Bought
T1 sequence (Q15116 25-167 limits assumed): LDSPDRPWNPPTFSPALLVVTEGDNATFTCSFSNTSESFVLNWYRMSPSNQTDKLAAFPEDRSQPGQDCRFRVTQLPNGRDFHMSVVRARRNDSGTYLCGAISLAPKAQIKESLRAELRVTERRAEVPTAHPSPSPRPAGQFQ

| Molecule | binding result [4] | also measured |
| --- | --- | --- |
| 商品化的抗PD-1的流式抗体PD-1-PE(biolegend，329906) | – | PD-1表达量 (% of T cells stained by PD-1-PE) (T细胞表面PD-1 (human) [1]): 32.6 %; PD-1表达量 (% of T cells stained by PD-1-PE) (T细胞表面PD-1 (human) [2]): 26.2 % |
| 阳性对照αPD-1单克隆抗体:Anti-PD1mAb，Human(IgG4)Lot No.B52-63NS1-AS,ACRO Biosystems (antibody) | – | 阻断率 [3]: 70.7 % |
| B1 | binds | – |
| B2 | binds | – |
| B3 | binds | – |
| B4 | binds | – |
| B5 | binds | – |
